± gives the uncertainty stated by the source.
Assay: self-splicing fitness, log relative to wild type (ln ratio); higher = more splicing; Tetrahymena group I intron in knt gene, E. coli kanamycin selection, DiMSum; sequences stand for … in CUCUCU…GGAGGGAAAAGUUAUCAGGCAUGCACCUGGUAGCUAGUCUUUAAACCAAUAGAUUGCAUCGGUUUAAAAGGCAAGACCGUCAAAUUGCGGGAAAGGGGUCAACAGCCGUUCAGUACCAAGUCUCAGGGGAAACUUUGAGAUGGCCUUGCAAAGGGUAUGGUAAUAAGCUGACGGACAUGGUCCUAACCACGCAGCCAAGUCCUAAGUCAACAGAUCUUCUGUUGAUAUGGAUGCAGUUCACAGACUAAAUGUCGGUCGGGGAAGAUGUAUUCUUCUCAUAAGAUAUAGUCGGACCUCUCCUUAAUGGGAGCUAGCGGAUGAAGUGAUGCAACACUGGAGCCGCUGGGAACUAAUUUGUAUGCGAAAGUAUAUUGAUUAGUUUUGGAGUACUCGUGGUCG
Summary of the method: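 Library with all eight P1ex-region intron nucleotides randomised, intron inside the knt kanamycin-resistance gene on pET-22b(+), in E. coli BL21(DE3). Cells grew overnight at 37°C or 30°C on LB agar with or without 25 μg/mL kanamycin (plus 100 μg/mL carbenicillin, 50 μM IPTG, 0.2% rhamnose), in six replicate transformations. Pooled colonies were amplicon-sequenced on Illumina HiSeq 2500. DiMSum fitness is the error-weighted combination of wild-type-normalised replicate fold changes, kanamycin versus none.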

Row | Sequence | self-splicing fitness (ln) (30 °C) | self-splicing fitness (ln) (37 °C)
1 | GGAGAGCAAUAUUACGUUGU | -4.01 ± 0.19 | -3.77 ± 0.24
2 | GGAUAGCAAUAUUACGAAAG | -2.79 ± 0.48 | 
3 | GGAUAGCAAUAUUACGAACC | -2.49 ± 0.36 | -1.77 ± 0.28
4 | GGAUAGCAAUAUUACGAAUC | -1.72 ± 0.088 | -1.8 ± 0.12
5 | GGAUAGCAAUAUUACGACUA | -1.37 ± 0.42 | -1.11 ± 0.28
6 | GGAUAGCAAUAUUACGAUCG | -0.534 ± 0.095 | 0.652 ± 0.14
7 | GGAUAGCAAUAUUACGCCUA | -1.45 ± 0.14 | -0.0155 ± 0.17
8 | GGAUAGCAAUAUUACGCUGG | -2.25 ± 0.15 | -1.05 ± 0.18
9 | GGAUAGCAAUAUUACGGAGU | -2.95 ± 0.34 | -2.16 ± 0.42
10 | GGAUAGCAAUAUUACGGAUU | -1.79 ± 0.12 | -0.787 ± 0.12
11 | GGAUAGCAAUAUUACGGCAG |  | -2.18 ± 0.22
12 | GGAUAGCAAUAUUACGGUGG | -3.85 ± 0.18 | -2.48 ± 0.14
13 | GGAUAGCAAUAUUACGUACA | -1.42 ± 0.097 | -0.395 ± 0.098
14 | GGAUAGCAAUAUUACGUAUG | -1.66 ± 0.28 | -0.951 ± 0.23
15 | GGAUAGCAAUAUUACGUGAG | -1.33 ± 0.11 | 0.321 ± 0.1
16 | GGAUAGCAAUAUUACGUGAU | -2.44 ± 0.06 | -1.06 ± 0.074
17 | GGAUAGCAAUAUUACGUUGU | -3.13 ± 0.2 | -1.58 ± 0.15
18 | GGCAAGCAAUAUUACGAAAC | -0.925 ± 0.13 | -0.903 ± 0.16
19 | GGCAAGCAAUAUUACGAGUU | -1.94 ± 0.081 | -0.521 ± 0.088
20 | GGCAAGCAAUAUUACGCGAC | -3.25 ± 0.23 | -2.23 ± 0.27

Row | Sequence | self-splicing fitness (ln) (30 °C) | self-splicing fitness (ln) (37 °C)
21 | GGCAAGCAAUAUUACGCGAU | -2.6 ± 0.25 | -2.37 ± 0.24
22 | GGCAAGCAAUAUUACGCGCC |  | -1.77 ± 0.28
23 | GGCAAGCAAUAUUACGCGGA | -0.732 ± 0.095 | -0.268 ± 0.094
24 | GGCAAGCAAUAUUACGCGUA | -0.585 ± 0.065 | -0.212 ± 0.076
25 | GGCAAGCAAUAUUACGCUAG | -3.39 ± 0.24 | -2.83 ± 0.37
26 | GGCAAGCAAUAUUACGCUGU | -4.24 ± 0.23 | -2.05 ± 0.2
27 | GGCAAGCAAUAUUACGCUUU | -1.58 ± 0.12 | -0.416 ± 0.12
28 | GGCAAGCAAUAUUACGGAUG | -2.34 ± 0.15 | -0.798 ± 0.15
29 | GGCAAGCAAUAUUACGGCCC | -3.62 ± 0.36 | -1.85 ± 0.3
30 | GGCAAGCAAUAUUACGUAAC | -0.613 ± 0.064 | -0.533 ± 0.089
31 | GGCAAGCAAUAUUACGUUCA | -0.364 ± 0.092 | 0.553 ± 0.11
32 | GGCAAGCAAUAUUACGUUUA | -1.29 ± 0.1 | -0.0113 ± 0.11
33 | GGCCAGCAAUAUUACGAAUG | -4.74 ± 0.39 | -2.17 ± 0.22
34 | GGCCAGCAAUAUUACGAAUU | -3.05 ± 0.19 | -1.03 ± 0.11
35 | GGCCAGCAAUAUUACGAGAA |  | -2.06 ± 0.36
36 | GGCCAGCAAUAUUACGAGUG | -2.55 ± 0.11 | -1.14 ± 0.093
37 | GGCCAGCAAUAUUACGAUUG | -3.73 ± 0.2 | -1.74 ± 0.16
38 | GGCCAGCAAUAUUACGCAAA | -3.09 ± 0.24 | -1.02 ± 0.12
39 | GGCCAGCAAUAUUACGCAAU | -1.17 ± 0.098 | -1.2 ± 0.09

Source: the supplement of paper PMC7877785
